According to the nanobody polyreactivity screen of Harvey et al. (2022):

Test: yeast display, Sf9 membrane polyspecificity reagent, FACS + sequencing; frameworks hold sequencing errors
In short: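 Galactose-induced (36–48 hours) yeast carrying a synthetic nanobody display library were exposed to 10% biotinylated, detergent-solubilized Sf9 membrane reagent at 4 °C for 1 hour. FACS followed streptavidin microbead enrichment, using low and high (top ~1%) gates for expression (anti-HA) and reagent binding (streptavidin). Colony PCR, MiSeq 2 × 250 sequencing and CDR-length filtering followed. Labels for polyreactivity reflect the gate of origin.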

Sequence	polyreactivity (PSR sort gate)
QGQLGESGGGLVQAGGSLRLSCAASGRIFNCYGMGWYRQAPGKERELVATISKSSDITYYADSVKGRFTISRDIAKNNVYLQMNSLRPEDTAVYYCAAKVRQWRQGSYSSQYDYWGQGTQVTVSS	high polyreactivity
QGQLGESGGGLVQAGGSLRLSCAASGSIFPEYDMGWYRQAPGNERELDAAISWSGGSTYYADSVKGRFTISRANAKNTVSLQRNSLKPVDTAVYYCNRVPSWRIDYDYWGQGTQVSVSS	low polyreactivity
QGQLVESGAGLVQAGGSLRLSCAASGITLHGYVMGWYRQAPGKETELVAAITSSGGRTYYADSVKGRFTISRDNAKNTVYLQMNRLKPVDTAVYYCAARIYYYAFSGYYWGQGTQVTVSS	high polyreactivity
QGQLVESGGGLGQAGGTLRLSCAASGFTFSFYAMGWYRQAPGKERELVAAISWSGGSTYYADSVKGRFTISRDNAKNTVYLQMNSLKPEDTAVYYCAAKLLYVGRYGYWGHGTQVTVSS	high polyreactivity
QGQLVESGGGLLQAGGSLSLSCAATGFTFTENAMGWYRQEPGKEREFVAYISSSGDSTYYSDSVKGRFTISRDNAKNTVYLQMNSLKPEDTAVYYCYRDLVYDYYYVPQPSRFDYWGQGTQVTLSS	high polyreactivity
QGQLVESGGGLVQAGGSLLLICAASGGTFLTYAMGWYRQAPGKERELVAAITSGGSTKYADSVKGRFTISRDNAKNTVYLQMNSLKPEDTAVYYCAADSVRDYVLWWAYSRSDYWGQGTQVTVSS	low polyreactivity
QGQLVESGGGLVQAGGSLRLKCAASVFTFQFYDMGWYRQAPGKEMEFVATITWRAGSTYYADSVKGRFTISRDNAKNTVYLQMNSLKPEDTAVYYCIADYYRHSLDYDYVGYDYWGQGTQVTVSS	low polyreactivity
QGQLVESGGGLVQAGGSLRLSCAASGFTFAPNAMAWYRQAPGKERELVAAISSASSTYYADSLKGRFTISRDNAKNTVYLQMNSLKPEDTAVYYCAAREGWGFYYWGQGTQVTVSS	high polyreactivity
QGQLVESGGGLVQAGGSLRLSCAASGFTFDYYAMGWYRQATGKEREFVAAISSRGDDTYYADSVKGRFTISRDNAKNTVYLQMNSLKPEDTAVYYCAALDPWKPEYDYWGQGTQVTLSS	high polyreactivity
QGQLVESGGGLVQAGGSLRLSCAASGFTFNYYAMGWSRQAPGKERELVAAISWRGGSTSYADSVKGRFTISRDNAKNTVYLQMNSLKPEDTAVYYCNAGYSGIYYFAGDYWGQGTQVTVSS	high polyreactivity
QGQLVESGGGLVQAGGSLRLSCAASGFTFQYYAMGWYRQAPGKDRELVAALSSSGGRTFYADSVKGRFTISRDNAKNTVYLQMNSLKAEDTAVYYCAAVWYGFLYYYWGQGTQVTVSS	high polyreactivity
QGQLVESGGGLVQAGGSLRLSCAASGFTFSYNVMGWYRQAPGKERELVPAINWSGGRTYYADSVKGRFTISRDNAKNTVYLQMNSLKPEDTAVYYCAARVYRGTARLIYDYWGQGTQVTVSS	high polyreactivity
QGQLVESGGGLVQAGGSLRLSCAASGFTFYYNAMGWYRQAPGQERELVAAISTRGGNTYYADSVKGRFTISRDNAKNTVYLQMNSLKPEDTAVYYCARKIRREGRYDYWGQGTQVTVSS	high polyreactivity
QGQLVESGGGLVQAGGSLRLSCAASGGTFEYNTMGWYRQAPGKERELVAAIRSSTVRTYYADSVKGRFTISRDNAKNTVYLQMNSLKPEDTAVYYCAATRYRKYWGQGTQVTVTS	high polyreactivity
QGQLVESGGGLVQAGGSLRLSCAASGIIFTANVMGWYRQAPGKERELVAAITRGGNTYYADSVKGRFTISRDNAKNTVYLQMNSLKPEDTAVYYCAAADYTTPVPYGRKGFDYWGQGTQVTVSS	low polyreactivity
QGQLVESGGGLVQAGGSLRLSCAASGLIFYPNGMGWYREAPGKERELVAAITYSDGSTYYADSVKGRFTISRDNAKNTVYLQMNSLKAEDTAVYYCNRVTRWTYNYWGQGTQVTVSS	high polyreactivity
QGQLVESGGGLVQAGGSLRLSCAASGLTFKYYTMGWYRQAPGKEMELVAAINWSGASTYADSVKGRFTISRDNAKNTVYLQMNSLKPEDTAVYYCAADSPSWAPVREYDFWGQGTQVTVSS	low polyreactivity
QGQLVESGGGLVQAGGSLRLSCAASGNTFWYYAMGWYRQAPGKEREVVATISSSGGSTSYAHSVKGRFTISRDNAKNTVYLQMNSLKPVDTAVYYCAKPIRYFAAYPLTKGYYYWGQCTQVTVSS	high polyreactivity
QGQLVESGGGLVQAGGSLRLSCAASGRIVGPNTMGWSRQAPGKERELVAAISSGGGTYYADSVKGRFTISRDNAKNTVYLQMNSLKPEDTAVYYCAADYTTLKLYYWFDYWGQGTHVTVSS	low polyreactivity
QGQLVESGGGLVQAGGSLRLSCAASGRTFSVNDMGWYRQAPGKERELVAAMSFSGGRTYYADSVKGRFTISRDNAKNTVYLQMNSLKPEDTAVYYCAADIRGYDYWGQGTQVTVSS	high polyreactivity
QGQLVESGGGLVQAGGSLRLSCAASGSIFPDYAMGWYRQAPGKERELVAAITWRDDSTYYADSVKGRFTISRDNAKNTVYLQMNSLKPEDTAVYYCIASALDPLYAKDDYWGQGTQVTVSS	low polyreactivity
QGQLVESGGGLVQAGGSLRLSCAASGSIFPYNDMGWYRQAPRKERELFAAINSDGSTDYADSVKGRFTISRDNAKNTVYLLMKSLKPEDTAVYDCNGDYVATFLSPPTSVSYGYWGQVTQVTVSS	low polyreactivity

Sequence	polyreactivity (PSR sort gate)
QGQLVESGGGLVQAGGSLRLSCAASGSIFYRNAMGWYRQAPGKERELVAAISYSGGSTYYADSVKGRFTISRDNAKNTVYLQMNSLKPEDTAVYYCAKDYPTPISDYSRYYGYGYWGQGTQVTVSS	low polyreactivity
QGQLVESGGGLVQAGGSLRLSCAASGSTFPTNSMGWYRPAPGNDRELVAAITGGASTYYADSVKGRFTISRDNAKNTVYLQMNSLKPEDTAVYYCAADDSWFYYGYGYWGQGTQVTVSS	low polyreactivity
QGQLVESGGGLVQAGGSLRLSCAASGTFSPYAMGWYRPAPGKERELVAVITSNTGRTYADSVKGRFTISRDNAKNTVYLQMNSLKPEDTAVYYCASRSTYRHWYRTGSRFDYWGQGTQVTVSS	low polyreactivity
QGQLVESGGGLVQAGGSLRLSCAASGYIFNPNAMGWYRQGPGKERDLFAGITWRGDRTYYADSVKGRFTISRDNAKNTVYLQMNCLKPEDTAVYYCNGAGADRWSYSSNIRRYYYWGHGTQVTVSS	high polyreactivity
QGQLVESGGGLVQAGGSLRLSCAASGYIIRAYAMGWYRQAHGKERELVAAISSRGGSTYYADSVKGRFTISRDNAKNTVYLQMNSLKPEDTAVYYCAAAYRQPYIGYGYWGQGTQVTVSS	high polyreactivity
QGQLVESGGGLVQAGGSLRLTCAASGSIFYVYDIGWYRPAPGKERELVANIRDGGITYADSVKGRFTISRDNAKYTVYLQMNSLKPEDTAVYYCARDDTSPGYGDQSSNAAYYYWGQGTQVTVSS	low polyreactivity
QGQLVESGGGLVQGGGSLRFSCAASGITFQRYALGGYRQAPGKDRALVAAIRRSGTSTYYADSVKGRFPITRHNAKNPVHLQMNSLKPEDTAVKYCAAGSYPTEGSKYGYWGQGTQVTGSS	high polyreactivity
QGQLVESGGRLVQAGGSLRLSCAASGFIFDAYAMGWYRQAPWKERELVAAIDYSGGNTYYADSVTGRFTISRDNAKNTVYLQMNSLTPEDTAVYYCNADYAGSFWSREYDYWGQGTQVTVSS	low polyreactivity
QGQLVESGVGLVQAGGSLRLSCAASGLTFSWYAMGWYRQAPGKERELVAVITTSGGSTYYSDSVKGRFTISRDNAKNTVYLQMNSLKPEDTAVYYCAVGVPSWEFDYWGQGTHVTVSS	low polyreactivity
QGQLVESWGGLVQAGGSLRLICAASGFNLGRYAKGWYRQAPGKERELVAAISIGGRTNYADSVKERFTISRDNSKTSVYLHLKSLKPEVTAVYYSAADVRGSAYTTGDYWGQGTQVTVTS	low polyreactivity
QGQLVETGGGLVQAGGSLRLSCAASGRIFDDNAMGWYRQAPGKERELVASITVSTGSTYYADSVKGRFTISRDNAKNTVYLKMNSLKPEDTAVYYCAKDNSLPDYDYWGQGSQVTVSS	low polyreactivity
QGQRVESGGGLVQAGGSLRLSCAASGFIFSYYTMGWYRQAPGKERELVAAISSTGRTNYADSVKGRFTISRDNAKHTVYLQMNSLKPDDTAFYYCNAAKLSYGPWRGYYKLDVWGQGTQVTVSS	high polyreactivity
QGQRVESGGGLVQAGGSLRLSCAASGRIFTFYAMGWYRPAPGKERELVAAITWGDGSTYYADSVKGRFTISRDNAKNTVYLQMNSLKPEDTAVYYCNKTYIDTTVYVVIMDYWGQGTQVTVSS	low polyreactivity
QGQRVESGGGLVQAGGSLRLSCAASGRIFTQYAMGWYRQAPGKARELVAASNASDGSTYADSVKGRFTISRDNAKNTVYIQINSLKPEDTAVYYCNVTGGPYDFTRWSEFDHWGQGTHVTVSS	low polyreactivity
QGQRVESGGGLVQAGGSLRLSCAASGSTFPWYAMGWYRQARGSERELVAGISEGGASTYYADSVKGRFTISRDNAKNTVYLQMNSLNPEDTAVYYCAADQVGAVYWVGEYGYWGQGTHVTVSS	low polyreactivity
QIQLVESCGGLVQPGGSLRLSCAASGFTFYRYSRGWYRQAPGKERELVAPISTSGVSTYYADSVKGRFTISRDNAKNTVYLQMNSLKPEDTAVYYWAASAGPRASYYYWGQGTQVTVSS	high polyreactivity
QIQLVESGGGIVQAGGSLRLSCAASGFIFNTYDMGWYRQAPGKEMELVAVITSGGTTNYADSVKGRFTISRDNAKNTVYLQINCLKPEDTAVYSCNRDSVLDPGNPKPYVFDYWGQGTQVTVSS	low polyreactivity
QIQLVESGGGLVQAGGSLRLSCAASGFTFYYYVMGWYRQAPGKERELVAAISSRGGSTYYADSVKGRFTISRDNAKNTVYLQMNSLKPEDTAVYYCAATYWPYRPGYYYWGQGTQVTVSS	high polyreactivity
QLHLVESAGGLVQAGGSLRLSCVYSGLTQPYAMGWYRHAPGKEREWVAGITCRGASTYYADSVKGRFTISRDNAKNTVYLQLNSLKPEDTAVYYCAARSTIQRRGYYGYRVGLSEYGYWGQGTQVTVSS	low polyreactivity
QLKHVESGGGLVQAGGSLRLSCAASVGTFGLNAMGRYRQAPGKERELVADIDGRGGSTYYADSVKGRFTISRDNAKNTVNLQMNTLKPEDTAVYYCAARAPFLSVPSELDYCGQGTQVTVSS	low polyreactivity
QLKLEESGGRLVQAGGSLRLSCASSGRTFTYYVMGCYRQAPGKERELVAAISDSGGSTYYADSVKGRFTISRDNAKNTVYLQMNSLKPEDTAVYYCATDSYWYRLREYNYWGQGTQVTVSS	high polyreactivity
